# Laboratory results from US20170190775A1.
# How the values were obtained:
# [1] = molecular target: T1, full length cynomolgus monkey (c)TREM-1 on cells (cynomolgus monkey); test: cell-based or functional assay
# T1 sequence: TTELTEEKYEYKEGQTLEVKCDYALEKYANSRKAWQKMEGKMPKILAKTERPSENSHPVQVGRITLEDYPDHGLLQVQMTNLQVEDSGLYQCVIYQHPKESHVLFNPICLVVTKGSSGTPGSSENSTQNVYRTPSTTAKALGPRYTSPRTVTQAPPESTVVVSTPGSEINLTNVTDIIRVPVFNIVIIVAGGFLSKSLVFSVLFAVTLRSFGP
# [2] = molecular target: human TREM-1 on cells (human) (UniProt Q9NP99); test: cell-based or functional assay
# [3] = molecular target: human TREM-1 (hTREM-1) protein (human) (UniProt Q9NP99); test: SPR, mAb captured by anti-Fc, hTREM-1 as analyte (Example 11)
# [4] = molecular target: cynomolgus TREM-1 (cTREM-1) protein (cynomolgus monkey); test: SPR, mAb captured by anti-Fc, cTREM-1 as analyte (Example 11)
# recombinant human PGLYRP1 expressed from E. coli and refolded, sequence (O75594 22-196 limits assumed): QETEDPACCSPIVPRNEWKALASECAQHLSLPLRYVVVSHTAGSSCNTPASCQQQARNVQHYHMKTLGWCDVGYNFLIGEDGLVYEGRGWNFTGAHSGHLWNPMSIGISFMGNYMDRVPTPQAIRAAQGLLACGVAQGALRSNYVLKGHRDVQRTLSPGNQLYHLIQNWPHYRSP
# human TREM-1 on cells (human), sequence (Q9NP99 21-234 limits assumed): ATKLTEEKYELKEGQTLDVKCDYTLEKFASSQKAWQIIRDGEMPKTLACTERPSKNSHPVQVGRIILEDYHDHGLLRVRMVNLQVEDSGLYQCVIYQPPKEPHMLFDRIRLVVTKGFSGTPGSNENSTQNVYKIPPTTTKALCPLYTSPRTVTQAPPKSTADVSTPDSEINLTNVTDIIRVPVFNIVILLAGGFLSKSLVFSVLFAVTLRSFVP
# human TREM-1 (hTREM-1) protein (human), sequence (Q9NP99 21-200 limits assumed): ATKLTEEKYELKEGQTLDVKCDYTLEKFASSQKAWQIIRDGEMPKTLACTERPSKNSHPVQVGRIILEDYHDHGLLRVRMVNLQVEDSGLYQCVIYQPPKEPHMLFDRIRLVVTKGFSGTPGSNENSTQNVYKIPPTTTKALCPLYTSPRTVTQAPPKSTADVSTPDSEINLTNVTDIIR
substance,measurement,setting,value
recombinant human PGLYRP1 expressed from E. coli and refolded (from UniProt O75594 22-196) (ligand),"TNF-α, cynomolgus M2 macrophages, PGN + PGRP-S, donor 1",[1],295 pg/mL
same,"TNF-α, cynomolgus M2 macrophages, PGN + PGRP-S, donor 2",[1],307 pg/mL
same,"GM-CSF, RA synovial tissue cells, PGN + PGLYRP1 (PGN alone 182)",[2],616 pg/mL
same,"IL-1beta, RA synovial tissue cells, PGN + PGLYRP1 (PGN alone 2419)",[2],3770 pg/mL
same,"IL-6, RA synovial tissue cells, PGN + PGLYRP1 (PGN alone 2057)",[2],4190 pg/mL
same,"IL-8, RA synovial tissue cells, PGN + PGLYRP1 (PGN alone 2575)",[2],5510 pg/mL
same,"MCP-1, RA synovial tissue cells, PGN + PGLYRP1 (PGN alone 273)",[2],471 pg/mL
same,"MIP-1beta, RA synovial tissue cells, PGN + PGLYRP1 (PGN alone 2458)",[2],4400 pg/mL
same,"TNFa, normoxic M2 macrophages, PGN-BS + PGLYRP1, donor 1 (PGN-BS alone 427)",[2],728 pg/mL
same,"TNFa, normoxic M2 macrophages, PGN-BS + PGLYRP1, donor 2 (PGN-BS alone 381)",[2],771 pg/mL
same,"TNFalpha, RA synovial tissue cells, PGN + PGLYRP1 (PGN alone 624)",[2],1440 pg/mL
"WH0054210M4 (clone 2E2, Sigma Aldrich) (antibody)",Kd,[3],20 nM
same,"% remaining activity at 0.003 µg/ml, BWZ/hTREM-1 reporter",[2],98%
same,"% remaining activity at 0.03 µg/ml, BWZ/hTREM-1 reporter",[2],104%
same,"% remaining activity at 0.3 µg/ml, BWZ/hTREM-1 reporter",[2],86%
clone TREM-26 (Biolegend) (antibody),Kd,[4],4 nM
same,Kd,[3],0.9 nM
same,"% remaining cyno TREM-1 activity at 0.74 ug/ml, reporter cell",[1],104%
same,"% remaining cyno TREM-1 activity at 20 ug/ml, reporter cell",[1],87.7%
same,"% remaining activity at 0.003 µg/ml, BWZ/hTREM-1 reporter",[2],100%
same,"% remaining activity at 0.03 µg/ml, BWZ/hTREM-1 reporter",[2],124%
same,"% remaining activity at 0.3 µg/ml, BWZ/hTREM-1 reporter",[2],108%
same,"Luminescence, BWZ/hTREM-1 reporter cell + activated neutrophils (8.8 x 10E6 without antibody)",[2],9.9e+06 luminescence
same,"normalised reporter signal, PGN-activated neutrophils (normalised signal)",[2],> 1
"SAB1405121 (clone 3F5, Sigma Aldrich) (antibody)","% remaining activity at 0.003 µg/ml, BWZ/hTREM-1 reporter",[2],104%
same,"% remaining activity at 0.03 µg/ml, BWZ/hTREM-1 reporter",[2],101%
same,"% remaining activity at 0.3 µg/ml, BWZ/hTREM-1 reporter",[2],97%
"HM2252 (clone 6B1, Hycult Biotech) (antibody)",Kd,[3],3 nM
same,"% remaining activity at 0.003 µg/ml, BWZ/hTREM-1 reporter",[2],96%
same,"% remaining activity at 0.03 µg/ml, BWZ/hTREM-1 reporter",[2],122%
same,"% remaining activity at 0.3 µg/ml, BWZ/hTREM-1 reporter",[2],113%
"MAB1278 (R&D Systems, cat. no. MAB1278) (antibody)",Kd,[3],8 nM
same,"BWZ/hTREM-1 reporter signal, RA synovial fluid, mAb at 0.1 ug/ml, assay 1",[2],829000
same,"BWZ/hTREM-1 reporter signal, RA synovial fluid, mAb at 0.1 ug/ml, assay 2",[2],691000
same,"BWZ/hTREM-1 reporter signal, RA synovial fluid, mAb at 1 ug/ml, assay 1",[2],1.19e+06
same,"BWZ/hTREM-1 reporter signal, RA synovial fluid, mAb at 1 ug/ml, assay 2",[2],1.02e+06
same,"BWZ/hTREM-1 reporter signal, RA synovial fluid, mAb at 10 ug/ml, assay 1",[2],1.08e+06
same,"BWZ/hTREM-1 reporter signal, RA synovial fluid, mAb at 10 ug/ml, assay 2",[2],1.05e+06
same,"IL-6, M2 macrophages on platebound mAb 2 µg/ml",[2],412 pg/mL
same,"IL-6, M2 macrophages on platebound mAb 6 µg/ml",[2],877 pg/mL
same,"IL-6, M2 macrophages on platebound mAb 20 µg/ml",[2],1350 pg/mL
same,"Luminescence, BWZ/hTREM-1 reporter cell + activated neutrophils (8.8 x 10E6 without antibody)",[2],1e+07 luminescence
same,"TNFa, M2 macrophages on platebound mAb 2 µg/ml",[2],2000 pg/mL
same,"TNFa, M2 macrophages on platebound mAb 6 µg/ml",[2],6450 pg/mL
same,"TNFa, M2 macrophages on platebound mAb 20 µg/ml",[2],7750 pg/mL
same,fold induction of the BWZ/hTREM-1 reporter signal by platebound antibody,[2],32 fold
same,"induction of NFAT-driven LacZ production, 1-10 µg/ml plate bound antibody against isotype control",[2],40 fold
same,"normalised reporter signal, PGN-activated neutrophils (normalised signal)",[2],> 1
"clone TREM-37 (Biolegend, cat. no. 316102) (antibody)",Kd,[3],0.8 nM
same,"% remaining activity at 0.003 µg/ml, BWZ/hTREM-1 reporter",[2],98%
same,"% remaining activity at 0.03 µg/ml, BWZ/hTREM-1 reporter",[2],103%
same,"% remaining activity at 0.3 µg/ml, BWZ/hTREM-1 reporter",[2],90%
same,"Luminescence, BWZ/hTREM-1 reporter cell + activated neutrophils (8.8 x 10E6 without antibody)",[2],6.1e+06 luminescence
same,"normalised reporter signal, PGN-activated neutrophils (normalised signal)",[2],> 1
"sc-80394 (clone 98Z12, Santa Cruz Biotechnology) (antibody)",Kd,[3],30 nM
same,"% remaining activity at 0.003 µg/ml, BWZ/hTREM-1 reporter",[2],120%
same,"% remaining activity at 0.03 µg/ml, BWZ/hTREM-1 reporter",[2],134%
same,"% remaining activity at 0.3 µg/ml, BWZ/hTREM-1 reporter",[2],131%
type II PGLYRP1 on transiently transfected HEK cells (ligand),"TNF-a release, RA synovial tissue cells + IgG4 + 1 x 10^3 Type II cells",[2],57.9 pg/mL
same,"TNF-a release, RA synovial tissue cells + IgG4 + 1 x 10^4 Type II cells",[2],95 pg/mL
same,"TNF-a release, RA synovial tissue cells + IgG4 + 1 x 10^5 Type II cells",[2],121 pg/mL
same,"TNF-a release, RA synovial tissue cells + IgG4 + 3 x 10^3 Type II cells",[2],54.6 pg/mL
same,"TNF-a release, RA synovial tissue cells + IgG4 + 3 x 10^4 Type II cells",[2],114 pg/mL
